Data: the supplement of paper PMC12667976

B1: library; numbered along this chain (parent)
chain: MATDAALRRLLRLHRTEIAVAVDSAFPLLHALADHDVVPEDKFQETLHLKEKEGCPQAFHALLSWLLTQDSTAILDFWRVLFKDYNLERYGRLQPILDSFPKDVDLSQPRKGRKPPAVPKALVPPPRLPTKRKASEEARAAAPAALTPRGTASPGSQLKAKPPKKPESSAEQQRLPLGNGIQTMSASVQRAVAMSSGDVPGARGAVEGILIQQVFESGGSKKCIQVGGEFYTPSKFEDSGSGKNKARSSSGPKPLVRAKGAQGAAPGGGEARLGQQGSVPAPLALPSDPQLHQKNEDECAVCRDGGELICCDGCPRAFHLACLSPPLREIPSGTWRCSSCLQATVQEVQPRAEEPRPQEPPVETPLPPGLRSAGEEVRGPPGEPLAGMDTTLVYKHLPAPPSAAPLPGLDSSALHPLLCVGPEGQQNLAPGARCGVCGDGTDVLRCTHCAAAFHWRCHFPAGTSRPGTGLRCRSCSGDVTPAPVEGVLAPSPARLAPGPAKDDTASHEPALHRDDLESLLSEHTFDGILQWAIQSMARPAAPFPS

Variants of: B1
Assay: AIRE transcriptional activation functional score (insulin promoter-GFP; nonsense median 0, synonymous median 1) (normalised score); higher = higher AIRE activity (more reporter activation)
Details: with insulin promoter-GFP reporter in HEK293
Description: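 Deep mutational scan of full-length human AIRE (codon-optimized cDNA, DT-POPCode NNN libraries over three regions) integrated at a Bxb1 landing pad in HEK293 cells carrying an insulin core promoter-GFP reporter at a Flp-In site. Cells were sorted for the top 10% GFP about 14 days after transfection. Variant frequency log-ratios (select vs non-select, TileSeq) were rescaled so that the nonsense median is 0 and the synonymous median is 1, then averaged over biological replicates.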

AIRE transcriptional activation functional score, by site and new letter:
A61: P -0.68 | D 0.176 | Q 0.472 | I -0.471 | W 1.46 | E 0.619 | L -0.166 | T 0.573 | V 0.328 | S 1.48 | H 1.26 | R 0.646 | F 0.26 | G 0.214 | Y -0.0286 | C -0.153 | N 0.59 | M 0.552
S71: T 1.05 | W -0.0187 | Y 1.52 | K 1.2 | F 0.353 | I 0.605 | Q 2.02 | H 1.32 | V 0.229 | P -0.532 | E 1.17 | M 0.472 | N 0.235 | G 0.809 | C 0.858 | R 0.321 | D 1.61 | A 1.08 | L -0.359
D70: F -0.152 | V -0.0452 | M -0.516 | W -0.512 | L -0.362 | I 0.395 | N 0.992 | H -0.0845 | C 0.296 | K 2.05 | S 2.47 | G 0.895 | Y -0.642 | P -0.549 | E 0.94 | Q 0.436 | T 0.428 | A -0.203 | R 0.35
F77: N -0.429 | K 0.21 | C 0.198 | A 0.257 | L -0.0762 | H 0.528 | G -0.0629 | E 0.445 | D -0.0172 | M 0.136 | I 0.0486
D76: I 0.22 | C 0.409 | M 2.3 | G -0.331 | E 0.132 | A 0.43 | H 0.235 | Y 0.302 | V 0.795 | L 0.535 | N -0.077 | T 0.0165 | F -0.202 | W 0.516 | S 0.371 | R 0.463
L62: C 0.584 | G -0.253 | W 0.305 | K -0.404 | M 0.558 | P -0.295 | S 0.0796 | D -0.0278 | Q 0.0502 | A -0.0777 | R -0.00966 | T -0.152 | V 0.0204 | I -0.601 | Y 0.0998 | H -0.594 | N 0.232 | E -0.679 | F -0.766
L63: S -0.272 | T -0.37 | V 0.617 | N 0.0814 | Y -0.421 | A 0.181 | M -0.458 | Q -0.326 | C -0.0612 | D -0.402 | K -0.721 | R -0.0432 | I 0.588 | G 0.772 | W 0.381 | E -1.39 | P 0.339 | F 0.298 | H -0.128
L67: F -0.0388 | I 0.391 | Y 0.237 | S -0.0517 | T -0.29 | V 0.638 | Q -0.874 | H 0.742 | N 0.265 | R -0.769 | G -0.0868 | M 0.554 | K 0.25 | W 0.0659 | A 0.0875 | C -0.405 | P -0.378 | E -0.592 | D 0.698
T72: A 1.01 | P 0.606 | S 0.667 | G 0.0759 | I 0.104 | D 2.22 | K 1.59 | N 1.15 | L 0.84 | F 0.964 | V 1.28 | C 0.562 | H 1.39 | Y 0.224 | W 0.0941 | R 0.0611
F59: S 0.2 | Y -0.0924 | V 0.903 | T 0.102 | N -0.0761 | Q -1.19 | P 0.0711 | W 0.208 | R -0.191
Q69: P 0.118 | E 0.0374 | V -0.0416 | I -0.279 | K 0.102 | T -0.236 | C 0.105 | W -0.383 | F -0.0774 | D 0.261 | M -0.732 | H -0.135 | N -0.248 | S -0.2 | A 0.0258 | Y 0.498 | L -0.119 | G 0.383 | R 1.15
T68: N 0.581 | V 0.624 | I -0.358 | M 0.985 | Q -1.24 | Y 0.495 | K 0.868 | F -0.0989 | P 0.108 | E -2.1 | D -0.277 | R 0.304 | H 0.424 | L 0.729 | W -0.374 | S 0.804 | A 0.312 | G 0.848 | C 0.77
L75: H 0.935 | V 1.31 | T 1.46 | R 0.518 | I 1.13 | P -0.233 | E -0.603 | Q 0.0287 | N 1.01 | M 0.71 | D -0.0941 | Y 1.52 | C 0.732 | K 0.732 | A 0.288 | S 0.842 | G 0.82 | F 0.688 | W 2.01
A73: I 1.33 | G -0.592 | W -0.767 | Q -1.02 | D -0.0868 | S 0.179 | L 0.61 | F 0.15 | N -0.949 | V 1.1 | H 2.12 | C 0.629 | E 0.775 | Y 0.555 | P 0.676 | T 1.01 | R 1.26
I74: V 0.51 | L 0.0101 | C 0.295 | Y 0.19 | S -0.0735 | N -0.347 | D 0.058 | R -0.00714 | H 0.604 | E -0.548 | P 0.409 | T -0.246 | F -0.0221 | W 0.39 | G 0.496 | A 0.186 | Q 0.136 | K 0.384 | M 0.0325
S64: K -0.37 | E -0.72 | A -0.0317 | T 0.485 | W 0.42 | I -0.0655 | G 0.447 | H 0.583 | M -0.0813 | N 0.278 | V -0.0585 | R -0.473 | P 0.795 | Q -0.939 | D -0.252 | Y 0.513 | L -0.114 | C -0.513 | F 0.0385
L66: Q 0.233 | M 0.0543 | A 0.62 | C -0.733 | N -0.299 | D -0.102 | K -0.126 | P 0.349 | R -0.171 | E -0.037 | V 0.121 | I 0.885 | H 0.316 | F -0.101 | Y 0.687 | S -0.186 | T -0.0651 | G -0.202 | W 0.0325
W65: N 0.316 | H 0.542 | F 0.122 | I -0.311 | Y -0.365 | D -1.55 | V -0.0047 | M -0.0554 | S 0.269 | Q -0.357 | K 0.535 | A -0.93 | L 0.2 | G 0.22 | R -0.313 | T 1.03 | E 0.0731 | C 0.469 | P -0.233
H60: E -0.56 | V -0.0783 | K -0.424 | D -0.0281 | F 1.06 | R 0.0862 | P -0.793 | Q 0.338 | Y 0.332 | N 0.179 | C -0.27 | G 0.0323 | L -0.135 | S -0.00297 | M 0.414 | I 0.216 | W 0.431 | A -0.135 | T 0.117
